{"source": "the RNAGym collection of RNA variant scans (doi:10.1093/molbev/msab373)", "parents": {"B1": {"name": "Azoarcus group I ribozyme (parent)", "chain": "GUGCCUUGCGCCGGGAAACCACGCAAGGGAUGGUGUCAAAUUCGGCGAAACCUAAGCGCCCGCCCGGGCGUAUGGCAACGCCGAGCCAAGCUUCGGCGCCUGCGCCGAUGAAGGUGUAGAGACUAGACGGCACCCACCUAAGGCAAACGCUAUGGUGAAGGCAUAGUCCAGGGAGUGGCGAAAGUCACACAAACCGG"}}}
{"variants_of": "B1", "assay": "reverse-splicing fitness (ratio to wild type); higher = more active; in vitro selection; Mg2+ level not given", "in_short": "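An in vitro group I ribozyme library with randomized positions was T7-transcribed and gel-purified. In triplicate, 10 pmol RNA in EPPS pH 7.5 was reacted with 50 pmoles of a 30-nt RNA substrate for 1 h at 37 °C across several added MgCl2 levels (1–48 mM), then stopped with EDTA. Products were reverse transcribed from a substrate-complementary primer, PCR-amplified and sequenced (HiSeq 4000). Fitness is a variant's read proportion after selection over that before, normalised to wild type.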"}
{"variant": "A111U A120C C150G C169U U176G", "reverse-splicing fitness": 0.00475}
{"variant": "A111U A120C C150G U176A", "reverse-splicing fitness": 0.0104}
{"variant": "A111U A120C C150G U176C", "reverse-splicing fitness": 0.0262}
{"variant": "A111U A120C C150G U176G", "reverse-splicing fitness": 0.00366}
{"variant": "A111U A120C C150U", "reverse-splicing fitness": 0.348}
{"variant": "A111U A120C C150U C169A", "reverse-splicing fitness": 0.0121}
{"variant": "A111U A120C C150U C169A U176A", "reverse-splicing fitness": 0.018}
{"variant": "A111U A120C C150U C169A U176C", "reverse-splicing fitness": 0.0126}
{"variant": "A111U A120C C150U C169A U176G", "reverse-splicing fitness": 0.00509}
{"variant": "A111U A120C C150U C169G", "reverse-splicing fitness": 0.00855}
{"variant": "A111U A120C C150U C169G U176A", "reverse-splicing fitness": 0.0138}
{"variant": "A111U A120C C150U C169G U176C", "reverse-splicing fitness": 0.0132}
{"variant": "A111U A120C C150U C169G U176G", "reverse-splicing fitness": 0.00495}
{"variant": "A111U A120C C150U C169U", "reverse-splicing fitness": 0.0972}
{"variant": "A111U A120C C150U C169U U176A", "reverse-splicing fitness": 0.0292}
{"variant": "A111U A120C C150U C169U U176C", "reverse-splicing fitness": 0.0362}
{"variant": "A111U A120C C150U C169U U176G", "reverse-splicing fitness": 0.00585}
{"variant": "A111U A120C C150U U176A", "reverse-splicing fitness": 0.154}
{"variant": "A111U A120C C150U U176C", "reverse-splicing fitness": 0.204}
{"variant": "A111U A120C C150U U176G", "reverse-splicing fitness": 0.0321}
{"variant": "A111U A120C C169A", "reverse-splicing fitness": 0.0124}
{"variant": "A111U A120C C169A U176A", "reverse-splicing fitness": 0.0174}
{"variant": "A111U A120C C169A U176C", "reverse-splicing fitness": 0.017}
{"variant": "A111U A120C C169A U176G", "reverse-splicing fitness": 0.00415}
{"variant": "A111U A120C C169G", "reverse-splicing fitness": 0.0098}
{"variant": "A111U A120C C169G U176A", "reverse-splicing fitness": 0.0144}
{"variant": "A111U A120C C169G U176C", "reverse-splicing fitness": 0.0168}
{"variant": "A111U A120C C169G U176G", "reverse-splicing fitness": 0.00402}
{"variant": "A111U A120C C169U", "reverse-splicing fitness": 0.174}
{"variant": "A111U A120C C169U U176A", "reverse-splicing fitness": 0.0322}
{"variant": "A111U A120C C169U U176C", "reverse-splicing fitness": 0.0473}
{"variant": "A111U A120C C169U U176G", "reverse-splicing fitness": 0.00626}
{"variant": "A111U A120C U176A", "reverse-splicing fitness": 0.277}
{"variant": "A111U A120C U176C", "reverse-splicing fitness": 0.28}
{"variant": "A111U A120C U176G", "reverse-splicing fitness": 0.0439}
{"variant": "A111U A120G", "reverse-splicing fitness": 0.174}
{"variant": "A111U A120G A145C", "reverse-splicing fitness": 0.159}
{"variant": "A111U A120G A145C C150A", "reverse-splicing fitness": 0.0115}
{"variant": "A111U A120G A145C C150A C169A", "reverse-splicing fitness": 0.00967}
{"variant": "A111U A120G A145C C150A C169A U176A", "reverse-splicing fitness": 0.0144}
{"variant": "A111U A120G A145C C150A C169A U176C", "reverse-splicing fitness": 0.00665}
{"variant": "A111U A120G A145C C150A C169A U176G", "reverse-splicing fitness": 0.004}
{"variant": "A111U A120G A145C C150A C169G", "reverse-splicing fitness": 0.0146}
{"variant": "A111U A120G A145C C150A C169G U176A", "reverse-splicing fitness": 0.0261}
{"variant": "A111U A120G A145C C150A C169G U176C", "reverse-splicing fitness": 0.015}
{"variant": "A111U A120G A145C C150A C169G U176G", "reverse-splicing fitness": 0.00529}
{"variant": "A111U A120G A145C C150A C169U", "reverse-splicing fitness": 0.0118}
{"variant": "A111U A120G A145C C150A C169U U176A", "reverse-splicing fitness": 0.0208}
{"variant": "A111U A120G A145C C150A C169U U176C", "reverse-splicing fitness": 0.0114}
{"variant": "A111U A120G A145C C150A C169U U176G", "reverse-splicing fitness": 0.00521}
{"variant": "A111U A120G A145C C150A U176A", "reverse-splicing fitness": 0.00785}
{"variant": "A111U A120G A145C C150A U176C", "reverse-splicing fitness": 0.0112}
{"variant": "A111U A120G A145C C150A U176G", "reverse-splicing fitness": 0.00407}
{"variant": "A111U A120G A145C C150G", "reverse-splicing fitness": 0.0213}
{"variant": "A111U A120G A145C C150G C169A", "reverse-splicing fitness": 0.0154}
{"variant": "A111U A120G A145C C150G C169A U176A", "reverse-splicing fitness": 0.00822}
{"variant": "A111U A120G A145C C150G C169A U176C", "reverse-splicing fitness": 0.00757}
{"variant": "A111U A120G A145C C150G C169A U176G", "reverse-splicing fitness": 0.00416}
{"variant": "A111U A120G A145C C150G C169G", "reverse-splicing fitness": 0.0237}
{"variant": "A111U A120G A145C C150G C169G U176A", "reverse-splicing fitness": 0.00926}
{"variant": "A111U A120G A145C C150G C169G U176C", "reverse-splicing fitness": 0.00636}
{"variant": "A111U A120G A145C C150G C169G U176G", "reverse-splicing fitness": 0.00359}
{"variant": "A111U A120G A145C C150G C169U", "reverse-splicing fitness": 0.0237}
{"variant": "A111U A120G A145C C150G C169U U176A", "reverse-splicing fitness": 0.0163}
{"variant": "A111U A120G A145C C150G C169U U176C", "reverse-splicing fitness": 0.0146}
{"variant": "A111U A120G A145C C150G C169U U176G", "reverse-splicing fitness": 0.00521}
{"variant": "A111U A120G A145C C150G U176A", "reverse-splicing fitness": 0.00783}
{"variant": "A111U A120G A145C C150G U176C", "reverse-splicing fitness": 0.0143}
{"variant": "A111U A120G A145C C150G U176G", "reverse-splicing fitness": 0.00302}
{"variant": "A111U A120G A145C C150U", "reverse-splicing fitness": 0.0388}
{"variant": "A111U A120G A145C C150U C169A", "reverse-splicing fitness": 0.0284}
{"variant": "A111U A120G A145C C150U C169A U176A", "reverse-splicing fitness": 0.012}
{"variant": "A111U A120G A145C C150U C169A U176C", "reverse-splicing fitness": 0.00998}
{"variant": "A111U A120G A145C C150U C169A U176G", "reverse-splicing fitness": 0.00531}
{"variant": "A111U A120G A145C C150U C169G", "reverse-splicing fitness": 0.0495}
{"variant": "A111U A120G A145C C150U C169G U176A", "reverse-splicing fitness": 0.0293}
{"variant": "A111U A120G A145C C150U C169G U176C", "reverse-splicing fitness": 0.0226}
{"variant": "A111U A120G A145C C150U C169G U176G", "reverse-splicing fitness": 0.00545}
{"variant": "A111U A120G A145C C150U C169U", "reverse-splicing fitness": 0.0397}
{"variant": "A111U A120G A145C C150U C169U U176A", "reverse-splicing fitness": 0.0278}
{"variant": "A111U A120G A145C C150U C169U U176C", "reverse-splicing fitness": 0.0209}
{"variant": "A111U A120G A145C C150U C169U U176G", "reverse-splicing fitness": 0.00469}
{"variant": "A111U A120G A145C C150U U176A", "reverse-splicing fitness": 0.0191}
